Measured values: the supplement of paper PMC9170038

System: MS2 coat protein
Experiment: apparent KD of MS2 coat protein; higher = weaker reporter binding
Conditions: Eterna round: R107; input ligand: arginine 13.2 mM
Procedure: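 RNA-MaP round R107: designed RNA switches with theophylline, tryptophan, arginine or FMN aptamers are transcribed on-chip within common flanks. They are titrated with SNAP-549-labelled MS2 coat protein in RNA-MaP buffer (100 mM Tris pH 7.5, 80 mM KCl, 4 mM MgCl2), without ligand or with the indicated ligand. Median apparent KD per design.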

Row | Sequence | apparent KD of MS2 coat protein [nM]
1 | AUAAAUAAAACCGAUACCAGCCUUAUACAUGAGGAUCACCCAUGUUAUGCUUCCUUUUUUGGCCCUUGGCAGCGGAAAUGGGUAA [AstrosSSTheB#1] | 45.3
2 | CUCCCGUGGUCGGCCGCCACUGGAGGCUUUGCGCGACAUGAGGAUCACCCAUGUGUGCCCGGCGUCAGGACCGGGAUCGCGUGAG [#1 Same State - Tryptophan B Attempt #13 (HarryS)] | 11.7

Same assay, conditions: Eterna round: R107; input ligand: none

Row | Sequence | apparent KD of MS2 coat protein [nM]
3 | UCGCUCUGGGUGAAAUCCGGAGAUGUGGAAGGAGCGCUCGAAAGAGCAGGUAGGUCGCCAACGGACAUGAGGAUCACCCAUGUAC [Same State - Arginine A (Freestyle 20)] | 29.6
4 | AUAAUAAAGUCGGCCGCCACUAUAAACAUGAGGAACAUGAGGAUCACCCAUGUAUGAGGAUCACCUAGGACCGGGACAAAUAUUA [AstrosExyTryB#3] | 57.3
5 | ACCAGGGUCUGAAGGAGCGCGAUUACAUGAGGAUCACCCAUGUGAAAUGGUAGAUGAUACUCGCAGGUAGGUCGCAGUACUUGGA [Same State Arginine B GF 14] | 107
6 | GGCACGUACGGAAGGAGCGACUGUUCGACGUGGGUACAUGAGGAUCACCCAUGUCUCCGCAGUCAGGUAGGUCGCCGUACGUGCC [EAB NP+V+V2 #21 +-Same Structure] | 42.7
7 | GCUAGUGGCAGAAGGAGCGGCAUACUUGCAAGUGACAUGAGGAUCACCCAUGUAAGGGAAUGCCAGGUAGGUCGCUGCCACUAGC [EAB NP+V+V2 #1 +-Same Structure] | 31.7
8 | AAAGCCUUGCCCGGUGUUCCGAAAGUGGAAGGAGCGCACAUUGGUGCAGGUAGGUCGCCACAUGAGGAUCACCCAUGUCUAGGCU [Isbeat] | 34.1
9 | GAACAUAAGGAUACUAUAAUAAGUACAGAAGGAGCGAGCGGAAGCUCAGGUAGGUCGCUGGGUAACAUGAGGAUCACCCAUGUUG [SSArg A #14 Road to perfection1] | 21.4
10 | AGUAGACACGCGGCCGCCACUUGAGGAUCACCCAAGUGGUGUGUACUUGAAACAAGUGCACAAUCAAGGACCGGGCGUGUCUACA [Omei Tryp B SS D v4] | 7.02
11 | AAACGUUGCUGCGAUACCAGACAUGAGGAUCACCCAUGUACCAAGGUAAAGAAAUAACGUGUCCCUUGGCAGCGCAGCAACGAAA [MAT - Exclusion Theophlline B - Mod of Eli - D12] | 10.2
12 | GUCCACAGCCGAAGGAGCGCUAGAAGAUGACAUGAGGAUCACCCAUGUGUGUGAUGUGGCUAGCAGGUAGGUCGCGGAGUGGAUU [Exclusion - Arginine B (Freestyle 14)] | 21.7
13 | AACAUGAGGAUCACCCAUGUCUGAACUGAAGGAGCGCUAAAUAAGGCAGGUAGGUCGCGGAAUUUUGUGUACAUAUGUAUAUGGG [9.H] | 25.9
14 | UCGCUCUGGGUGAGAUCCGGAGAUGUGGAAGGAGCGCUGGUUCCAGCAGGUAGGUCGCCAACGGACAUGAGGAUCACCCAUGUAC [Same State - Arginine A (Freestyle 13)] | 51.7
15 | UGAUUGAACGGAAGGAGCGUGAAGAGAGAGAAACAUGAGGAUCACCCAUGUAGAGAGAGAACACAGGUAGGUCGCCGAGAGAUUG [11.B] | 13.4
16 | UCACAUGAGGAUCACCCAUGUGUCAGAGAAGGAGCGGCCGCAAGGCCAGGUAGGUCGCUCGGGUAUUGUGAGGUUCACCCGUGUG [#1 Exclusion - Arginine A Attempt #12 (Inspired by cyborg)] | 35.8
17 | UGUCCUCAUGCGGCCGCCACUGUCGGCCGCCACUAAACAUGAGGAUCACCCAUGUAGGACCGGGACAGGACCGGGCAUGGGUGCU [TryBS - #DoubleAptamer] | 102
18 | CUCCCGUGGUCGGCCGCCACUGGAGGCUUUGCGCGACAUGAGGAUCACCCAUGUGUGCCCGGCGUCAGGACCGGGAUCGCGUGAG [#1 Same State - Tryptophan B Attempt #13 (HarryS)] | 14.6

Same assay, conditions: Eterna round: R107; input ligand: theophylline 20 uM

Row | Sequence | apparent KD of MS2 coat protein [nM]
19 | UCGCUCUGGGUGAAAUCCGGAGAUGUGGAAGGAGCGCUCGAAAGAGCAGGUAGGUCGCCAACGGACAUGAGGAUCACCCAUGUAC [Same State - Arginine A (Freestyle 20)] | 50
20 | AUUCAUGGAAACAUGAGAUAUCCUACCGGUCGAGGACCGGUACGGCCGCCACUCGGUUGGUGGCACAUGAGGAUCACCCAUGUUA [SS Tryp A #12] | 310
21 | AAAUAAAUAACUGAUACCAGUGGACUGACAUGAGGAUCACCCAUGUUGGGUUUUGUUGUCCACCCUUGGCAGCGGGCAUAUAAAA [#25 Exclusion-TheophyllineB] | 38.4
22 | GCCCUGCGCCCGGGACCGGCAAGAUCCAUGCGAGGACCGGUACGGCCGCCACUCGCAGACGUACAUGAGGAUCACCCAUGUCCUC [theeternabot_exclusion_MS2_Trp_A_24] | 838
23 | GAUAUUUGAAAACAAAUAUCAGUGGGUGAACGAGGACCGGUACGGCCGCCACUCGGACAUGAGGAUCACCCAUGUCCAUGUGAAA [AstrosExyTryA#7] | 18.2
24 | GUCAGUAGAACAGAUACCAGUCAAAGGCUGUGAUCUCAUAACAUGAGGAUCACCCAUGUUGACCCUUGGCAGCUGUGGGCGAGGG [#20 Exclusion-TheophyllineB] | 77.8
25 | GAACAGUCGGACAUGAGGAUCACCCAUGUGCGAGGACCGGUACGGCCGCCACUCGACAAGGGCGGUCCCGAAGCGAACAUACGCG [Cecearla] | 43.4
26 | AUAAUAAAGUCGGCCGCCACUAUAAACAUGAGGAACAUGAGGAUCACCCAUGUAUGAGGAUCACCUAGGACCGGGACAAAUAUUA [AstrosExyTryB#3] | 88.3
27 | ACCAGGGUCUGAAGGAGCGCGAUUACAUGAGGAUCACCCAUGUGAAAUGGUAGAUGAUACUCGCAGGUAGGUCGCAGUACUUGGA [Same State Arginine B GF 14] | 164
28 | GGCACGUACGGAAGGAGCGACUGUUCGACGUGGGUACAUGAGGAUCACCCAUGUCUCCGCAGUCAGGUAGGUCGCCGUACGUGCC [EAB NP+V+V2 #21 +-Same Structure] | 63.6
29 | UCGUGUGUUUCGGAUACCAGUGUGGUCGAUACAUGAGGAUCACCCAUGUGAGAGGAGGUACACCCUUGGCAGCUGGCUGUUGCGG [qqwmullin] | 82
30 | ACCGCAGGUCCUGAUACCAGAGACAUGAGGAUCACCCAUGUCCGAUCGUCCUGCCUCAGGCUCCCUUGGCAGCAGGGCUUGUCCU [Exclusion Theophylline B GF8] | 20.6
31 | GGUAUGUAUUCGGAAACGAAUGCAUACCAACGAGGACCGGUACGGCCGCCACUCGGGCGGCGAUCACAUGAGGAUCACCCAUGUA [Ex Tryptophan A 2] | 45.3
32 | GCUAGUGGCAGAAGGAGCGGCAUACUUGCAAGUGACAUGAGGAUCACCCAUGUAAGGGAAUGCCAGGUAGGUCGCUGCCACUAGC [EAB NP+V+V2 #1 +-Same Structure] | 54.5
33 | UACUUGCUGACGGCCGCCACUAGAACAUGAGGAUCACCCAUGUACCUGGUCCUUCAUGGGUGGACUAGGACCGGGUCAGCAAGAU [(Trp1)-(Ms2)-(T)'-(M)'-(Trp2)_Design4] | 418
34 | UCAGUGGGUUCGGCCGCCACUUGAGUGAUGGUGCCUCAAUAAGUCUACAUGAGGAUCACCCAUGUAAGGACCGGGAAUUUUAUGG [theeternabot_exclusion_MS2_Trp_B_19] | 59.1
35 | AAAGCCUUGCCCGGUGUUCCGAAAGUGGAAGGAGCGCACAUUGGUGCAGGUAGGUCGCCACAUGAGGAUCACCCAUGUCUAGGCU [Isbeat] | 107
36 | UCGCUCGCCGGAAGGCGAGCGAGUUGCGAUACCAGCCCGGAAACGGGCCCUUGGCAGCGCACAUGAGGAUCACCCAUGUCAUGUU [#1 Exclusion - Theophylline A Attempt #6 (HarryS)] | 27.5
